Results from CN117736324A.

Assays:
[1] = target: T1, 人Siglec-15抗原 (Siglec-15蛋白胞外段) (human) (UniProt Q6ZMC9); assay: ELISA, relative binding activity of HA-I purified by the method of Example 29; reference not given
T1 sequence (looked up): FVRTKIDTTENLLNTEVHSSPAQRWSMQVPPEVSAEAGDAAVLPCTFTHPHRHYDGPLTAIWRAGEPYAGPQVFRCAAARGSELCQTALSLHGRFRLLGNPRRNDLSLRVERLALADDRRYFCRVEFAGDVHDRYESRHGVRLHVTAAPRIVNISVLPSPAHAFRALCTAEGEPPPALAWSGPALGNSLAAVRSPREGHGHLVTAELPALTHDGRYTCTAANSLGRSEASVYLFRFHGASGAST

[2] = target: T1, 人Siglec-15抗原 (Siglec-15蛋白胞外段) (human); assay: ELISA, relative binding activity of HA-I purified by the method of Example 26; reference not given
[3] = target: T1, 人Siglec-15抗原 (Siglec-15蛋白胞外段) (human); assay: ELISA, relative binding activity of HA-I purified by the method of Example 31; reference not given
[4] = target: T1, 人Siglec-15抗原 (Siglec-15蛋白胞外段) (human); assay: ELISA, relative binding activity of HA-I purified by the method of Example 30; reference not given
[5] = target: T1, 人Siglec-15抗原 (Siglec-15蛋白胞外段) (human); assay: ELISA, relative binding activity of HA-I purified by the method of Example 33; reference not given
[6] = target: T1, 人Siglec-15抗原 (Siglec-15蛋白胞外段) (human); assay: ELISA, relative binding activity of HA-I purified by the method of Example 28; reference not given
[7] = target: T1, 人Siglec-15抗原 (Siglec-15蛋白胞外段) (human); assay: ELISA, relative binding activity of HA-I purified by the method of Example 27; reference not given
[8] = target: T1, 人Siglec-15抗原 (Siglec-15蛋白胞外段) (human); assay: ELISA, relative binding activity of HA-I purified by the method of Example 32; reference not given
[9] = target: T1, 人Siglec-15抗原 (Siglec-15蛋白胞外段) (human); assay: ELISA, relative binding activity of HA-I purified by the method of Example 24; reference not given

结合活性(%) [1]: 78%
结合活性(%) [2]: 112%
结合活性(%) [3]: 79%
结合活性(%) [4]: 105%
结合活性(%) [5]: 83%
结合活性(%) [6]: 90%
结合活性(%) [7]: 88%
结合活性(%) [8]: 86%
结合活性(%) [9]: 100%
B1: 抗Siglec-15单克隆抗体HA-I (人源化抗体分子, human IgG1/Ck) (antibody, V domains shown)
VH: QVQLVQSGAEVKKPGASVKVSCKASGYTFTDYNMFWVRQAPGQRLEWIGYIYPDNGGTGYNQNFKSKATLTVDNSASTAYMELSSLRSEDTAVYYCARSEYDYFDYWGQGTLVTVSS
VL: DIVLTQSPSSLSASVGDRVTITCRASQDISNYLNWYQQKPGKAVKLLIYYTSRLHSGVPSRFSGSGSGTDYTFTISSLQPEDIATYFCQQGNTLPLTFGQGTKVELKR
